Consider 67 sequences from the supplement of paper PMC10724198.

Data set [1] relates to Saccharomyces cerevisiae. Nature of the data set: protein stability index of tFT-peptide fusion in wild type (PSI (0-1 scale)); higher = more stable (slower turnover). Conditions: genetic background: wild type. As for the experimental part: (§1)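 MPS profiling in S. cerevisiae of two library types built from selected 12-aa C-degron peptides (IN1, IN2, LN1, LN3, VN2, R1-R5, W1-W3, Atg1 and Rpa12 C-termini): saturation mutagenesis libraries and C-terminal +1 capping libraries (13 aa). Each peptide is fused to the C-terminus of a sfGFP-mCherry timer, after a GGGS linker. Cells are FACS-sorted into 8 mCherry/sfGFP bins and sequenced. PSI runs from 0 (unstable) to 1 (stable), measured once in wild type and in the das1Δ or doa10Δ background.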

Data set [2] deals with Saccharomyces cerevisiae. Briefly: protein stability index of tFT-peptide fusion in deletion strain of DAS1 (PSI (0-1 scale)); higher = more stable (slower turnover). As to the method:
as §1
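For protein stability index of tFT-peptide fusion in deletion strain of DAS1 in this document: PSI is a weighted mean of each variant's read distribution over the sorted stability bins, computed only for variants having over 10 reads in total.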
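For protein stability index of tFT-peptide fusion in wild type in this document: PSI derived as read-weighted mean over the 8 sorting bins, only variants exceeding 10 total reads kept, mCherry placed adjacent to the peptide and sfGFP distal.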

For CTSCCYKFRTNN, the protein stability index was found to be 0.211 in the data set on Saccharomyces cerevisiae [1] and 0.661 with Saccharomyces cerevisiae [2].

On to CTSCEYKFRTNN, for which the protein stability index with Saccharomyces cerevisiae [1] was found to be 0.457; in the data set on Saccharomyces cerevisiae [2], 0.684.

For CTSCGQKFRTNN, the protein stability index was 0.448 in the data set on Saccharomyces cerevisiae [1] and 0.686 in the data set on Saccharomyces cerevisiae [2].

For the sequence CTSCGYEFRTNN, the protein stability index came out at 0.64 in the data set with Saccharomyces cerevisiae [1] and 0.675 in the data set on Saccharomyces cerevisiae [2].

Regarding CTSCGYHFRTNN, the protein stability index stood at 0.258 in the data set on Saccharomyces cerevisiae [1] and 0.695 in the data set with Saccharomyces cerevisiae [2].

On to CTSCGYKFITNN, for which the values for the protein stability index in the data set on Saccharomyces cerevisiae [1] and in the data set with Saccharomyces cerevisiae [2] were 0.325 and 0.709, respectively.

As to CTSCGYKFRGNN, the protein stability index was determined as 0.682 in the data set on Saccharomyces cerevisiae [1] and 0.686 in the data set on Saccharomyces cerevisiae [2].

For the sequence CTSCGYKFRHNN, the protein stability index in the data set with Saccharomyces cerevisiae [1] is 0.555; with Saccharomyces cerevisiae [2], 0.705.

As to CTSCGYKFRKNN, the protein stability index in the data set on Saccharomyces cerevisiae [1] was determined as 0.23; with Saccharomyces cerevisiae [2] it was 0.692.

Consider CTSCGYKFRTNNI, for which the values for the protein stability index in the data set on Saccharomyces cerevisiae [1] and in the data set on Saccharomyces cerevisiae [2] were 0.716 and 0.699, respectively.

Consider CTSCGYKFRTNNP, for which the protein stability index turned out to be 0.698 in the data set with Saccharomyces cerevisiae [1] and 0.69 in the data set on Saccharomyces cerevisiae [2].

Take CTSCGYKFRTNNR: the figures for the protein stability index in the data set with Saccharomyces cerevisiae [1] and in the data set with Saccharomyces cerevisiae [2] were 0.707 and 0.705, respectively.

With CTSCGYKFRTNNY, the values for the protein stability index with Saccharomyces cerevisiae [1] and in the data set with Saccharomyces cerevisiae [2] were 0.677 and 0.704, respectively.

As to CTSCGYKFRTPN, the protein stability index in the data set on Saccharomyces cerevisiae [1] was 0.689; in the data set on Saccharomyces cerevisiae [2], 0.71.

Regarding CTSCGYKFRTRN, the figures for the protein stability index with Saccharomyces cerevisiae [1] and in the data set with Saccharomyces cerevisiae [2] were 0.534 and 0.683, respectively.

Consider CTSCGYKFRVNN, for which the values for the protein stability index with Saccharomyces cerevisiae [1] and with Saccharomyces cerevisiae [2] were 0.282 and 0.687, respectively.

On to CTSCGYKFRWNN, for which the protein stability index in the data set with Saccharomyces cerevisiae [1] is 0.49; in the data set on Saccharomyces cerevisiae [2], 0.737.

On to CTSCGYKFRYNN, for which the protein stability index was determined as 0.369 in the data set on Saccharomyces cerevisiae [1] and 0.702 in the data set on Saccharomyces cerevisiae [2].

For the sequence CTSCGYKFYTNN, the figures for the protein stability index with Saccharomyces cerevisiae [1] and with Saccharomyces cerevisiae [2] were 0.374 and 0.701, respectively.

For CTSCGYKHRTNN, the protein stability index was 0.582 with Saccharomyces cerevisiae [1] and 0.687 with Saccharomyces cerevisiae [2].

Regarding CTSCGYKWRTNN, the protein stability index amounted to 0.153 with Saccharomyces cerevisiae [1] and 0.659 with Saccharomyces cerevisiae [2].

In the case of CTSCGYVFRTNN, the figures for the protein stability index in the data set on Saccharomyces cerevisiae [1] and in the data set on Saccharomyces cerevisiae [2] were 0.196 and 0.698, respectively.

On to CTSCNYKFRTNN, for which the protein stability index with Saccharomyces cerevisiae [1] is 0.407; in the data set on Saccharomyces cerevisiae [2], 0.681.

Take CTSCTYKFRTNN: the protein stability index in the data set with Saccharomyces cerevisiae [1] stood at 0.238; with Saccharomyces cerevisiae [2], 0.648.

Turning to CTSVGYKFRTNN, the protein stability index in the data set with Saccharomyces cerevisiae [1] worked out at 0.176; in the data set with Saccharomyces cerevisiae [2], 0.682.

In the case of CTVCGYKFRTNN, the protein stability index is 0.28 in the data set with Saccharomyces cerevisiae [1] and 0.704 in the data set on Saccharomyces cerevisiae [2].

For CVSCGYKFRTNN, the protein stability index worked out at 0.243 in the data set on Saccharomyces cerevisiae [1] and 0.705 with Saccharomyces cerevisiae [2].

With CWSCGYKFRTNN, the protein stability index in the data set on Saccharomyces cerevisiae [1] is 0.167; with Saccharomyces cerevisiae [2] it was 0.714.

Take DSLAASFWRVVG: the protein stability index came out at 0.135 in the data set on Saccharomyces cerevisiae [1] and 0.697 with Saccharomyces cerevisiae [2].

Consider ELIQPLPVQFLN, for which the protein stability index with Saccharomyces cerevisiae [1] came to 0.0675; in the data set with Saccharomyces cerevisiae [2], 0.612.

Regarding EVVYLSCVACIN, the protein stability index in the data set with Saccharomyces cerevisiae [1] was 0.0159; in the data set on Saccharomyces cerevisiae [2], 0.0291.

As for FCMRWTFRYWVN, the protein stability index was 0.0388 with Saccharomyces cerevisiae [1] and 0.481 with Saccharomyces cerevisiae [2].

FDKRNHLIKLLN: the figures for the protein stability index in the data set with Saccharomyces cerevisiae [1] and in the data set on Saccharomyces cerevisiae [2] were 0.131 and 0.589, respectively.

With FHMRWTFRYWVN, the protein stability index with Saccharomyces cerevisiae [1] came to 0.0327; with Saccharomyces cerevisiae [2], 0.466.

FLIQPLPVQFLN: the protein stability index in the data set on Saccharomyces cerevisiae [1] amounted to 0.0527; with Saccharomyces cerevisiae [2], 0.582.

For the sequence FSIRWTFRYWVN, the protein stability index with Saccharomyces cerevisiae [1] worked out at 0.0207; with Saccharomyces cerevisiae [2], 0.335.

Regarding FSMRDTFRYWVN, the protein stability index with Saccharomyces cerevisiae [1] was determined as 0.0684; in the data set with Saccharomyces cerevisiae [2], 0.833.

For the sequence FSMRVTFRYWVN, the figures for the protein stability index in the data set with Saccharomyces cerevisiae [1] and in the data set on Saccharomyces cerevisiae [2] were 0.0315 and 0.352, respectively.

FSMRWAFRYWVN: the protein stability index in the data set on Saccharomyces cerevisiae [1] is 0.115; with Saccharomyces cerevisiae [2], 0.58.

Consider FSMRWLFRYWVN, for which the protein stability index worked out at 0.0905 in the data set with Saccharomyces cerevisiae [1] and 0.573 in the data set on Saccharomyces cerevisiae [2].

FSMRWSFRYWVN: the protein stability index was 0.0724 with Saccharomyces cerevisiae [1] and 0.544 with Saccharomyces cerevisiae [2].

In the case of FSMRWTDRYWVN, the protein stability index was determined as 0.0929 with Saccharomyces cerevisiae [1] and 0.568 in the data set on Saccharomyces cerevisiae [2].

Turning to FSMRWTFRFWVN, the protein stability index turned out to be 0.052 in the data set on Saccharomyces cerevisiae [1] and 0.419 with Saccharomyces cerevisiae [2].

FSMRWTFRIWVN: the values for the protein stability index in the data set on Saccharomyces cerevisiae [1] and in the data set on Saccharomyces cerevisiae [2] were 0.0523 and 0.288, respectively.

On to FSMRWTFRSWVN, for which the protein stability index was 0.272 in the data set on Saccharomyces cerevisiae [1] and 0.515 in the data set on Saccharomyces cerevisiae [2].

For the sequence FSMRWTFRYHVN, the protein stability index with Saccharomyces cerevisiae [1] turned out to be 0.035; with Saccharomyces cerevisiae [2], 0.472.

Take FSMRWTFRYNVN: the protein stability index in the data set on Saccharomyces cerevisiae [1] was 0.214; with Saccharomyces cerevisiae [2], 0.568.

For FSMRWTFRYVVN, the protein stability index worked out at 0.117 in the data set with Saccharomyces cerevisiae [1] and 0.496 in the data set on Saccharomyces cerevisiae [2].

Take FSMRWTFRYWDN: the figures for the protein stability index in the data set with Saccharomyces cerevisiae [1] and in the data set on Saccharomyces cerevisiae [2] were 0.0861 and 0.554, respectively.

With FSMRWTFRYWRN, the protein stability index in the data set on Saccharomyces cerevisiae [1] is 0.653; in the data set on Saccharomyces cerevisiae [2], 0.531.

As for FSMRWTFRYWVC, the protein stability index in the data set on Saccharomyces cerevisiae [1] was determined as 0.0396; with Saccharomyces cerevisiae [2] it was 0.403.

As to FSMRWTFRYWVD, the protein stability index turned out to be 0.46 in the data set with Saccharomyces cerevisiae [1] and 0.467 in the data set with Saccharomyces cerevisiae [2].

As for FSMRWTFRYWVNN, the values for the protein stability index in the data set with Saccharomyces cerevisiae [1] and in the data set on Saccharomyces cerevisiae [2] were 0.137 and 0.558, respectively.

Take FSMRWTFRYWVNQ: the protein stability index was 0.141 with Saccharomyces cerevisiae [1] and 0.558 in the data set with Saccharomyces cerevisiae [2].

Consider FSMRWTFRYWVQ, for which the protein stability index was 0.205 with Saccharomyces cerevisiae [1] and 0.48 in the data set on Saccharomyces cerevisiae [2].

For the sequence FSMRWTFRYWVY, the protein stability index in the data set with Saccharomyces cerevisiae [1] stood at 0.0725; in the data set on Saccharomyces cerevisiae [2], 0.374.

In the case of FSMRWTFRYYVN, the figures for the protein stability index with Saccharomyces cerevisiae [1] and with Saccharomyces cerevisiae [2] were 0.0506 and 0.482, respectively.

FSMRWTHRYWVN: the protein stability index in the data set on Saccharomyces cerevisiae [1] is 0.0511; with Saccharomyces cerevisiae [2], 0.561.

For FSMWWTFRYWVN, the protein stability index in the data set on Saccharomyces cerevisiae [1] was 0.077; in the data set with Saccharomyces cerevisiae [2], 0.444.

In the case of FSNRWTFRYWVN, the protein stability index worked out at 0.0838 with Saccharomyces cerevisiae [1] and 0.617 with Saccharomyces cerevisiae [2].

On to GKHKKGQKQKIN, for which the protein stability index was 0.133 in the data set with Saccharomyces cerevisiae [1] and 0.585 in the data set with Saccharomyces cerevisiae [2].

For GLIQPLPVQFLN, the protein stability index worked out at 0.0806 in the data set with Saccharomyces cerevisiae [1] and 0.62 in the data set on Saccharomyces cerevisiae [2].

On to HDKRNHLIKLLN, for which the results for the protein stability index with Saccharomyces cerevisiae [1] and in the data set on Saccharomyces cerevisiae [2] were 0.077 and 0.581, respectively.

With HKILRQKMNHQN, the protein stability index in the data set on Saccharomyces cerevisiae [1] worked out at 0.168; in the data set with Saccharomyces cerevisiae [2], 0.683.

With IVVYLSCVACIN, the protein stability index worked out at 0.0176 in the data set on Saccharomyces cerevisiae [1] and 0.0302 in the data set on Saccharomyces cerevisiae [2].

Regarding KKHAKGQKQKIN, the protein stability index is 0.121 in the data set with Saccharomyces cerevisiae [1] and 0.565 in the data set with Saccharomyces cerevisiae [2].

For KKHKKGPKQKIN, the protein stability index in the data set with Saccharomyces cerevisiae [1] amounted to 0.175; with Saccharomyces cerevisiae [2] it was 0.603.
